B1: extracellular domain of CD147 (CD147^ECD) [human] / Trefoil factor 3 (TFF3), recombinant mature form (residues 22-80) [human] (parent complex)
chain 1: AAGTVFTTVEDLGSKILLTCSLNDSATEVTGHRWLKGGVVLKEDALPGQKTEFKVDSDDQWGEYSCVFLPEPMGTANIQLHGPPRVKAVKSSEHINEGETAMLVCKSESVPPVTDWAWYKITDSEDKALMNGSESRFFVSSSQGRSELHIENLNMEADPGQYRCNGTSSKGSDQAIITLRVRSH
chain 2: EEYVGLSANQCAVPAKDRVDCGYPHVTPKECNNRGCCFDSRIPGVPWCFKPLQEAECTF

Variants of: B1
Experiment: SPR (Biacore); value read at end of injection, ~120 s; concentrations not given; read off a plot

| response [Ru] | Variant |
| --- | --- |
| ~4.7 | chain 1 AAGTVFTTVEDLGSKILLTCSLNDSATEVTGHRWLKGGVVLKEDALPGQKTEFKVDSDDQWGEYSCVFLPEPMGTANIQLHGPPRVKAVKSSEHINEGETAMLVCKSESAPPVTDWAWYKITDSEDKALMNGSESRFFVSSSQGRSELHIENLNMEADPGQYRCNGTSSKGSDQAIITLRVRSH [chain 1 V110A] |
| ~2 | chain 1 R33A |
| ~8.7 | chain 1 AAGTVFTTVEDLGSKILLTCSLNDSATEVTGHRWLKGGVVLKEDALPGQKTEFKVDSDDQWGEYSCVFLPEPMGTANIQLHGPPRVKAVKSSEHINEGETAMLVCKSESVPPVTDWAWYKITDSEDKALMNGSESRFFVSSSQGASELHIENLNMEADPGQYRCNGTSSKGSDQAIITLRVRSH [chain 1 R145A] |
| ~4.3 | chain 1 AAGTVFTTVEDLGSKILLTCSLNDSATEVTGHRWLKGGVVLKEDALPGQKTEFKVDSDDQWGEYSCVFLPEPMATANIQLHGPPRVKAVKSSEHINEGETAMLVCKSESVPPVTDWAWYKITDSEDKALMNGSESRFFVSSSQGRSELHIENLNMEADPGQYRCNGTSSKGSDQAIITLRVRSH [chain 1 G74A] |
| ~14 | chain 1 AAGTVFTTVEDLGSKILLTCSLNDSATEVTGHRWLKGGVVLKEDALPGQKTEFKVDSDDQWGEYSCVFLPEPMGTANIQLHGPPRVKAVKSSEHINEGEAAMLVCKSESVPPVTDWAWYKITDSEDKALMNGSESRFFVSSSQGRSELHIENLNMEADPGQYRCNGTSSKGSDQAIITLRVRSH [chain 1 T100A] |
